{"source": "patent US6515118", "key": {"[1]": {"tested_on": "Ac-Asp-Glu-Ala-Asp-aldehyde (Ac-DEAD-CHO)"}, "[2]": {"target": "T1, DFF-40, 40-kDa subunit of DNA Fragmentation Factor (DFF), purified from HeLa cell S-100 (UniProt O76075)", "T1 sequence": "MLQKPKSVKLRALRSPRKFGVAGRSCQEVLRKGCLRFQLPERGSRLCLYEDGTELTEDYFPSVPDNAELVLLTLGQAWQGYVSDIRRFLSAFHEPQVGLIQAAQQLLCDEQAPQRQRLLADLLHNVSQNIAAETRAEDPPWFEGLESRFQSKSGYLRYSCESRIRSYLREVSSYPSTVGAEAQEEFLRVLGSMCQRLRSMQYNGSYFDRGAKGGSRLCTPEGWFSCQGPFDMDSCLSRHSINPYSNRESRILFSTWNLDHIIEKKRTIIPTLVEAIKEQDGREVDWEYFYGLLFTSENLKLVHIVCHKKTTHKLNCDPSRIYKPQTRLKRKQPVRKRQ"}, "[3]": {"tested_on": "DFF-45, 45-kDa subunit of DNA Fragmentation Factor (DFF), purified from HeLa cell S-100"}, "[4]": {"tested_on": "lamin B1 in co-incubated nuclei"}, "[5]": {"tested_on": "poly(ADP-ribose) polymerase (PARP) in co-incubated nuclei"}, "[6]": {"tested_on": "recombinant DFF-45 fusion protein with a six-histidine tag at the NH2-terminus"}}}
{"substance": "active recombinant caspase-3", "values": [{"measurement": "cleavage of PARP and lamin B1 in co-incubated nuclei (immunoblot)", "setting": "[1]", "value": "Ac-DEAD SEQ ID NO:6-CHO still blocked the cleavage of both PARP and lamin B1 in the co-incubated nuclei"}, {"measurement": "cleavage of biotinylated DFF (SDS-PAGE, streptavidin-peroxidase chemiluminescence)", "setting": "[2]", "value": "the 40-kDa subunit remained intact"}, {"measurement": "cleavage of biotinylated DFF (SDS-PAGE, streptavidin-peroxidase chemiluminescence)", "setting": "[3]", "value": "Incubation with caspase-3 resulted in the cleavage of the 45-kDa subunit into fragments of molecular masses of 30 kDa and 11 kDa"}, {"measurement": "time course of lamin B1 cleavage in nuclei (immunoblot)", "setting": "[4]", "value": "the rate of Lamin B1 cleavage by caspase-3 remained the same with or without DFF"}, {"measurement": "rate of PARP cleavage in nuclei (immunoblot)", "setting": "[5]", "value": "The same conclusion was obtained when the rate of cleavage of PARP was measured"}, {"measurement": "cleavage of the purified fusion protein (SDS-PAGE)", "setting": "[6]", "value": "Incubation of this fusion protein with caspase-3 resulted in its cleavage into three fragments of 30 kDa, 18 kDa and 11 kDa at the early time point"}]}
